Experimental findings from IntAct's records for PubMed 21807993 are described below.

The chains are these.
B1: E4 ubiquitin-protein ligase UFD2 (Saccharomyces cerevisiae), P54860 (parent)
chain: MTAIEDILQITTDPSDTRGYSLLKSEEVPQGSTLGVDFIDTLLLYQLTENEKLDKPFEYLNDCFRRNQQQKRITKNKPNAESLHSTFQEIDRLVIGYGVVALQIENFCMNGAFINYITGIVSNVNSYTDFLSQIIQRAILEGTALDLLNAVFPTLLEYCNKHVSHFDLNESVIYNNVLTIFELFVTFKPIAEIFTKIDGFFADYSCKPQDFERKTILGPILSLSPIEAAVAIRNYGDNLLRSKQQTAMIHESLQAEHKVVIDRLFFIVDKLVRGSLNSRTDMISYFAHIANKNHLRRADHPPFKELSSNGFMSNITLLLVRFSQPFLDISYKKIDKIDANYFNNPSLFIDLSGETRLNSDFKEADAFYDKNRKTADSKPNFISDCFFLTLTYLHYGLGGTLSFEEKMGSEIKALKEEIEKVKKIAANHDVFARFITAQLSKMEKALKTTESLRFALQGFFAHRSLQLEVFDFICGASTFLIRVVDPEHEFPFKQIKLPLIPDQIGVENVDNADFLRAHAPVPFKYYPEFVVEGPVNYSLYISKYQTSPIFRNPRLGSFVEFTTMVLRCPELVSNPHLKGKLVQLLSVGAMPLTDNSPGFMMDIFEHDELVNKNLLYALLDFYVIVEKTGSSSQFYDKFNSRYSISIILEELYYKIPSYKNQLIWQSQNNADFFVRFVARMLNDLTFLLDEGLSNLAEVHNIQNELDNRARGAPPTREEEDKELQTRLASASRQAKSSCGLADKSMKLFEIYSKDIPAAFVTPEIVYRLASMLNYNLESLVGPKCGELKVKDPQSYSFNPKDLLKALTTVYINLSEQSEFISAVAKDERSFNRNLFVRAVDILGRKTGLASPEFIEKLLNFANKAEEQRKADEEEDLEYGDVPDEFLDPLMYTIMKDPVILPASKMNIDRSTIKAHLLSDSTDPFNRMPLKLEDVTPNEELRQKILCFKKQKKEEAKHKASE

Variants of B1 are the subject of this assay. To be noted: with cdc48_yeast CDC48, P25694.
Chain of cdc48_yeast CDC48, P25694 (P25694 whole entry): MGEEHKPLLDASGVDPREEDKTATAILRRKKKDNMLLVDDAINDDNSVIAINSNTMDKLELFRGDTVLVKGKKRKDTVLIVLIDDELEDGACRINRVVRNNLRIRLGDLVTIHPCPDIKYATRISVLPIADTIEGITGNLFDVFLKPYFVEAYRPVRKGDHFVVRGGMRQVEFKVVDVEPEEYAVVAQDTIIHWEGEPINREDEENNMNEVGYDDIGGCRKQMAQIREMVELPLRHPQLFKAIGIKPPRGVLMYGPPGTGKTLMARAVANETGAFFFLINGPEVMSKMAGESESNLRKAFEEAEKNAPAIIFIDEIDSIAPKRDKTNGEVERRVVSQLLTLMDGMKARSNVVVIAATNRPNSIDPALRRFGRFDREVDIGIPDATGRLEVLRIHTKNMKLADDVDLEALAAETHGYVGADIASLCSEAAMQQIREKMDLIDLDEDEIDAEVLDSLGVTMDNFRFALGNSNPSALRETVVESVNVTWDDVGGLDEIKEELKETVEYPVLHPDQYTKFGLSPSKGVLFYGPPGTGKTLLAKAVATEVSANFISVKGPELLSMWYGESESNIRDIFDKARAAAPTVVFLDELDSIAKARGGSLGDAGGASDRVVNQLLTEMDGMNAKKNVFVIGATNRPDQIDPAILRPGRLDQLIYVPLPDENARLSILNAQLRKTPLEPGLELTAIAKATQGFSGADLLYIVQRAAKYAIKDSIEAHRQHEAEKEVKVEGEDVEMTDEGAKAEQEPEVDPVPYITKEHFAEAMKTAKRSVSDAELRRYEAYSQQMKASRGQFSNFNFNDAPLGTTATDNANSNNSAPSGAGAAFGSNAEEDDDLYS
For the variant C385Y, the “effect of a mutation on the interaction” value is given as “disrupting interaction strength”. Take G274D: the “effect of a mutation on the interaction” value is given as “disrupting interaction strength”.
